Experimental data reported in US20240174755A1 (published 2024).

Columns and labels:
[1] = molecular target: human PDGFR β on HEK293-PDGFR β cells (human) (UniProt P09619); test: FACS, 1-10 nM VHH-HL488, 1 h
[2] = molecular target: human PDGFR β on HEK293-PDGFR β cells (human) (UniProt P09619); test: FACS dose response, 1 h at 37° C.
[3] = molecular target: human PDGFR β on HEK293-PDGFR β cells (human) (UniProt P09619); test: FACS dose response, dialyzed VHH-HL488 batch (data not shown)
[4] = molecular target: T1, human EGFR/HER1/ErbB1 Protein (His Tag, Sino Biological; Cat. Number 10001-H08H) (human, UniProt P00533 25-645); test: direct ELISA, EGFR coated, streptavidin-HRP detection
T1 construct: Bought; construct not described; not shown: His tag
Description: (§1) 96-well maxisorp (Nunc) immunosorp plates were coated with 2 ug/ml of human PDGFRa (Sino Biological; Cat. Number; 10556-HCCH) or 2 ug/ml human EGFR/HER1/ErbB1 Protein (His Tag, Sino Biological; Cat. Number; 10001-H08H) in PBS, 100 ul per well, at 4C overnight. Wells were washed thrice in PBS. Unspecific binding sites were blocked in 4% BSA/PBS for 1 h at RT, followed by washing thrice in PBS. VHH-biotin conjugates, diluted at 0.01-100 nM in 1% BSA/PBS, were incubated for 1 h at RT, followed by washing thrice in PBS. Streptavidin-horseradish peroxidase (HRP; GeneTex) was diluted 1:40,000 in 1% BSA/PBS and was incubated for 1 h at RT. PDGFRa or EGFR was detected with positive control antibodies rabbit anti-human PDGFRa/CD140a Antibody, (Cat no: 10556-R065) or rabbit anti-human EGFR/HER1/ErbB1 (Catalog no: 10001-R021, both from Sino Biological) diluted in 1% BSA/PBS at 1:5000 and were incubated for 1 h at RT, shaking. Secondary HRP-conjugated anti-rabbit-antibody was diluted at 1:5000 in 1% BSA/PBS and was incubated for 1 h at RT, shaking. Wells were washed 6 times in PBS. o-Phenylenediamine dihydrochloride (OPD; Sigma-Aldrich) was used as HRP substrate at 0.4 mg/ml in 0.05 M phosphate-citrate buffer pH 5.0 with 0.03% sodium perborate (Sigma-Aldrich), prepared according to the manufacturer's recommendations, and was used in volume of 100 ul per well. Reaction was allowed to proceed for 30 min at RT in dark, and was stopped by adding 50 ul of 1.5 M HCl. Optical density was measured at 492 nm on a Synergy H1 microplate reader (BioTek).

[5] = molecular target: T2, human PDGFRa (Sino Biological; Cat. Number 10556-HCCH) (human, UniProt P16234 24-524, limits assumed); test: direct ELISA, PDGFRa coated, streptavidin-HRP detection
T2 construct: Bought; construct not described; also called PDGFRα
Description: as §1
VHH-biotin binding to human PDGFRa was assessed using an ELISA, where wells were coated with PDGFRa, and VHH-biotin binding was detected using streptavidin-HRP with OPD as a substrate.

[6] = molecular target: human PDGFR β ECD (U-protein Express, Utrecht) (human) (UniProt P09619); test: dose response ELISA, PDGFR β ECD coated at 2 µg/ml, rabbit anti-VHH detection
[7] = molecular target: human PDGFR β on HEK293-PDGFR β cells (human) (UniProt P09619); test: FACS dose response, 1 h at 37° C. (MFI)
[8] = molecular target: human PDGFR β on HEK293-PDGFR β cells (human) (UniProt P09619); test: cell binding on ice for 1 h, fluorescence plate reader

Binder | MFI at 4° C. (binding) as percent of MFI at 37° C. (binding and uptake) [1] [%] | detection limit [2] [nM] | concentration at which detectable by FACS [3] [nM] | also measured
1D4-HL488 (VHH, not shown: small tags and cut ends, HiLyte Fluor 488-maleimide on the C-terminal cysteine of the C-Direct tag) VHH: EVQLVESGGGLVQAGDSLRLSCAVSGRAQSRDVVGWFRQAPGKEREFLALVTRSYSTYYGASVKGRFTISRDNAKNTVHLEMNSLKPEDTGVYYCAADQGFCSGSGCYDWRTFHVWGQGTQVTVSS | 53 to 61 | 0.1 | 1 | 
1D4-biotin (VHH, Biotin-maleimide on the C-terminal cysteine of the C-Direct tag, ID NO: 27 or 28; also called biotin-conjugated 1D4; VHH-biotin; not shown: C-terminal C-Direct tag with a free cysteine and an EPEA purification tag (vector pYQVQ11)) VHH: EVQLVESGGGLVQAGDSLRLSCAVSGRAQSRDVVGWFRQAPGKEREFLALVTRSYSTYYGASVKGRFTISRDNAKNTVHLEMNSLKPEDTGVYYCAADQGFCSGSGCYDWRTFHVWGQGTQVTVSS |  |  |  | binding result [4]: no binding (tested: 0.01-100 nM); binding result [5]: no binding (tested: 0.01-100 nM)
QPD-1H4 (VHH) VHH: EVQLVESGGGLVQPGGSLRVSCSASWRTGNPFAMAWFRQAPGKERELIARISWTAGRTEYAESAKGRFTISRDVAKKTMYLQMNSLTPEDTGVYFCAARFVPSSGPTVFDTWGQGTQVTVSS |  |  |  | apparent affinity [6]: < 1 nM
1H4-HL488 (VHH, not shown: small tags and cut ends, HiLyte Fluor 488-maleimide on the C-terminal cysteine of the C-Direct tag) VHH: EVQLVESGGGLVQPGGSLRVSCSASWRTGNPFAMAWFRQAPGKERELIARISWTAGRTEYAESAKGRFTISRDVAKKTMYLQMNSLTPEDTGVYFCAARFVPSSGPTVFDTWGQGTQVTVSS | 65 to 66 | 0.1 | 10 | 
1H4-biotin (VHH, Biotin-maleimide on the C-terminal cysteine of the C-Direct tag, ID NO: 29 or 30; also called biotin-conjugated 1H4; VHH-biotin; not shown: C-terminal C-Direct tag with a free cysteine and an EPEA purification tag (vector pYQVQ11)) VHH: EVQLVESGGGLVQPGGSLRVSCSASWRTGNPFAMAWFRQAPGKERELIARISWTAGRTEYAESAKGRFTISRDVAKKTMYLQMNSLTPEDTGVYFCAARFVPSSGPTVFDTWGQGTQVTVSS |  |  |  | binding result [4]: no binding (tested: 0.01-100 nM); binding result [5]: no binding (tested: 0.01-100 nM)
QPD-1E12 (VHH) VHH: EVQLVESGGGLVQAGGSLRLSCAPSERSFSAYLMGWFRQAQGKEREFVAAWRWPTSTTYYSDSGKGRFTITGDNAKNTVELEMNSLKPEDTAVYYCAARRGILYGPATSPTAYDFWGQGTQVTVSS |  |  |  | apparent affinity [6]: 10 nM
1E12-HL488 (VHH, not shown: small tags and cut ends, HiLyte Fluor 488-maleimide on the C-terminal cysteine of the C-Direct tag) VHH: EVQLVESGGGLVQAGGSLRLSCAPSERSFSAYLMGWFRQAQGKEREFVAAWRWPTSTTYYSDSGKGRFTITGDNAKNTVELEMNSLKPEDTAVYYCAARRGILYGPATSPTAYDFWGQGTQVTVSS |  |  |  | lowest concentration detectably bound or taken up (percentage of HL488-positive population) [2]: 10 nM; detection limit [7]: 100 nM
1B5-HL488 (VHH, not shown: small tags and cut ends, HiLyte Fluor 488-maleimide on the C-terminal cysteine of the C-Direct tag) VHH: EVQLVESGGGLVQPGGSLRLSCVASGFSFSESAMSWVRQAPGKGLEWLSGISSGGGRSTTYAESVEGRFTISRDDAKNTLMLQMNSLKSEDTAVYYCAKTGYCSGYNCNFAPRGQGTQVTVSS | 52 to 58 | 0.1 | 1 | detection limit [8]: 1 nM
